Source: PMC4102529, “FRET Based Quantification and Screening Technology Platform for the Interactions of Leukocyte Function-Associated Antigen-1 (LFA-1) with InterCellular Adhesion Molecule-1 (ICAM-1)” (PLoS ONE, 2014)

Biological target: human recombinant ICAM-1 (D1-D2-Fc), Alexa Fluor 555 conjugate (human) (UniProt P05362)
Assay: FRET or BRET; steady-state, in solution competition screening, 96-well plate; Alexa Fluor 488-LFA-1 (100 nM) mixed with peptide (0.02, 0.2, 2, 20 µM), then incubated with Alexa Fluor 555-D1-D2-Fc (100 nM) for 30 min in the dark; PBS pH 7.4, 1 mM EGTA, 2 mM Mg2+; inhibition efficiency from the FRET efficiency

Chain of human recombinant ICAM-1 (D1-D2-Fc), Alexa Fluor 555 conjugate (human) (P05362 28-532): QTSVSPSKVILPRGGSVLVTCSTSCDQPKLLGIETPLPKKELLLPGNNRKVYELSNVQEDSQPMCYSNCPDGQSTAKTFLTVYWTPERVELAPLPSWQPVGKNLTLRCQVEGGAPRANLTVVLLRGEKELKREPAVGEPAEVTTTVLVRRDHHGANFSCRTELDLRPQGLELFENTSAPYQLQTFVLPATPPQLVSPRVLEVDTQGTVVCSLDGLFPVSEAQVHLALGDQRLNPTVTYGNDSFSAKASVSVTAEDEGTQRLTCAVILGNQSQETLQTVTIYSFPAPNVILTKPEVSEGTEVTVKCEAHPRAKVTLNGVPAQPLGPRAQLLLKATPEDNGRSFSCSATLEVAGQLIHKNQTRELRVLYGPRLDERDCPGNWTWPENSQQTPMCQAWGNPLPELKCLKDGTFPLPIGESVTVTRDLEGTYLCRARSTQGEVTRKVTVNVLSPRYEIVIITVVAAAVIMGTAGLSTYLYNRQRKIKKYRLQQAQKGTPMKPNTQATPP

inhibition efficiency of the LFA-1/D1-D2-Fc interaction at 0.02 µM peptide [%]	inhibition efficiency of the LFA-1/D1-D2-Fc interaction at 0.2 µM peptide [%]	inhibition efficiency of the LFA-1/D1-D2-Fc interaction at 2 µM peptide [%]	inhibition efficiency of the LFA-1/D1-D2-Fc interaction at 20 µM peptide [%]	Binder
40.8	47	53.2	65.1	ITDGEATDSGNIDAAKDIIRYIIGI [CD11a(237–261) peptide]
12.2	20.3	36.5	51.4	APLFYGEQRG [CD11a(456–465) peptide]
